Laboratory results taken from the supplement of paper PMC12764529.
± gives the half width of the 95% confidence interval.

Columns and labels:
[1] = folding stability dG unfold from chymotrypsin proteolysis; higher = more stable
Protocol: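 Folding stability of de novo designed mini-proteins (<80 aa, no Cys; designed by TrROS, TrMRF, ProteinMPNN and the joint model) was measured by cDNA display proteolysis with trypsin and chymotrypsin. Each protease was used at 11 concentrations in a threefold dilution series plus a no-protease condition. K50 was inferred by Bayesian fitting of sequencing counts, and dG unfold was derived against a sequence-predicted unfolded-state K50 (Tsuboyama et al. method). Sequences shown include variable-length N-terminal GS-type padding (SAGGSAGG...) inside a display construct carrying a PA tag. Rows were kept only if the AF2 dimer inter-PAE was >15, to exclude likely homo-oligomers.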

[2] = folding stability dG unfold (combined trypsin and chymotrypsin); higher = more stable
Method in brief: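 Mini-proteins designed to be under 80 residues and free of cysteine were carried in a PA-tagged cDNA display construct and digested with trypsin and with chymotrypsin. Each protease was applied at 11 threefold-diluted concentrations, alongside a no-protease condition, before sequencing. K50 came from Bayesian fitting of the sequencing counts, and unfolding free energy was obtained by comparing it with a sequence-predicted unfolded-state K50 and a shared folded-state K50, for each protease separately or for both together. Designs were retained only if their AlphaFold2 dimer inter-PAE exceeded 15.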

Sequence | folding stability dG unfold [1] [kcal/mol] | folding stability dG unfold [2] [kcal/mol]
SAGGSAGGSAGGPVFDMSNFEEVKEAAEKAGIDVVEEDPEKNTIYVDPSKPELIKEAIQKSAGGSAGGSAGG [r7_285_JUSTAS] | 0.874 ± 0.14 | 0.205 ± 0.4
SAGGSAGGSAGGRPIPLDEFRDMPPNWKIEFNNGKEVEIPADDIKKPIDKGDTVRIEPVPSAGGSAGGSAGG [r7_643_TrROS] | 0.705 ± 0.024 | 0.188 ± 0.098
SAGGSAGGSAGGSATVTTTTTSGATITPPALTELPSGYVAVVTPTGDTLNVVIAPKALLSAGGSAGGSAGGS [r4_279_JUSTAS] | 0.214 ± 0.26 | -0.966 ± 0.49
SAGGSAGGSAGGSDDGSGVRLETFTVTGKGATVTLPDGSTLTVPADQTVTVTRLEVLPKSAGGSAGGSAGGS [r4_26_TrMRF] | -0.509 ± 0.23 | < -1
SAGGSAGGSAGGSGFILKESPDSVLSYDAITGETKKVPSKDVVLEYDPNNGVYTLTVSKSAGGSAGGSAGGS [r4_127_JUSTAS] | 0.639 ± 0.12 | 0.168 ± 0.17
SAGGSAGGSAGGSGMEEIEEKMKKGYTFTVTSSSPNKTYTIKPEEVSKFKDESISVKAESAGGSAGGSAGGS [r4_157_JUSTAS] | -1.4 ± 0.84 | < -1
SAGGSAGGSAGGSGPDETILVTRKVTTTEPVLLEHDGTPRVRERTVTRTSSTTERVDLSSAGGSAGGSAGGS [r4_271_JUSTAS] | -0.146 ± 0.21 | -0.835 ± 0.32
SAGGSAGGSAGGSGSTTPIPATGATLTTETLPDGSPLYTLTDPATGATTTYPPGAPVGLSAGGSAGGSAGGS [r4_158_JUSTAS] | -0.26 ± 0.07 | < -1
SAGGSAGGSAGGSKLKEGEKYKVYFKKTKKELEVETLEQLKALEKAGKKVEIVKIEKVPSAGGSAGGSAGGS [r4_214_TrROS_Hall] | 0.153 ± 0.21 | -0.269 ± 0.14
SAGGSAGGSAGGSKSIYISPDDPNNIRTPDDGEPFKGMPIEEAKKEGIEPRGPNAFRIPSAGGSAGGSAGGS [r4_306_TrROS] | -0.152 ± 0.36 | -0.582 ± 0.54
SAGGSAGGSAGGSKVYVLVPVPNPEAIWEKVKALGPDAKVNSVEFLPGEGYLRVEVDAPSAGGSAGGSAGGS [r10_23_TrMRF] | -0.318 ± 0.49 | < -1
SAGGSAGGSAGGSMKSVPVITTTTTVLPNGTTVTTTTVNNVTSSGTTSSTTTTVTPSLLSAGGSAGGSAGGS [r4_486_JUSTAS] | -0.571 ± 0.15 | -0.836 ± 0.22
SAGGSAGGSAGGSMLTVRSSSTTPLPDGSTVTTYEVNDKPYLVRVDPNGPVVTVKPLSLLSAGGSAGGSAGG [r7_772_JUSTAS] | -0.367 ± 0.4 | -0.473 ± 0.29
SAGGSAGGSAGGSMVIKFTHPDGDPNLPVETLNLKKEELSEEKIKELKEKNPDIKIELKSAGGSAGGSAGGS [r4_422_JUSTAS] | 0.257 ± 0.33 | -0.326 ± 0.39
SAGGSAGGSAGGSPILIPRPDDYVLVVRIEEPRPLPDGDLAPPRIDVRLMPREEVERLLSAGGSAGGSAGGS [r4_238_TrMRF] | 0.992 ± 0.08 | 0.378 ± 0.12
SAGGSAGGSAGGSPVLKTEEKALPNGTVVTTEFLPGGRRREVITPPDGTVKVVEREIERSAGGSAGGSAGGS [r10_1184_JUSTAS] | 0.356 ± 0.019 | -0.0994 ± 0.095
SAGGSAGGSAGGSRYLRIETDRIDDVVEAALKTPGVEEVRVDTPADDRFYVLVKVPDEVSAGGSAGGSAGGS [r4_1_TrMRF] | -1.13 ± 0.92 | < -1
SAGGSAGGSAGGSSARVPFPATGAVLEVRVTPDGRPRVRVFNPATGEVVEFPPGAEVGVSAGGSAGGSAGGS [r4_158_TrMRF] | 0.762 ± 0.036 | 0.0259 ± 0.13
SAGGSAGGSAGGSSMKEVTLYVPPGTLDPAVVEKLREEGVKVTVVPVPLSREPDGPPVASAGGSAGGSAGGS [r4_294_JUSTAS] | 0.965 ± 0.17 | 0.0503 ± 0.38
SAGGSAGGSAGGSSMKYFTRSASPDTTFTVKTPNGGVVNVTPTAAPGTYKYTFTLPGNSSAGGSAGGSAGGS [r4_360_JUSTAS] | -0.42 ± 0.44 | < -1
SAGGSAGGSAGGSSSMVEVEVESEEELEAYLEPLAARGVEVTLTSRDPETGRWLLRVTPPSAGGSAGGSAGG [r7_964_JUSTAS] | 0.233 ± 0.2 | -0.0911 ± 0.2

Sequence | folding stability dG unfold [1] [kcal/mol] | folding stability dG unfold [2] [kcal/mol]
SAGGSAGGSAGGSVTIPVPENVKVRIYPPNGGRREVTAAAGATITVPAPGGEEVRIEVETSAGGSAGGSAGG [r7_357_TrMRF] | 0.715 ± 0.021 | 0.193 ± 0.1
SAGGSAGGSAGGSWRVRIDLPNGKSRTIPIKPGEEVDLNEIADELSDKYNIKSISIEEPSAGGSAGGSAGGS [r4_116_TrROS] | 0.42 ± 0.14 | -0.158 ± 0.29
SAGGSAGGSAGGTIKKVSDGTIVIPVPNPHQAEKFADTLMEKNNGRDVKIKVFPPEDFGPSAGGSAGGSAGG [r7_645_TrROS] | -0.264 ± 0.1 | < -1
SAGGSAGGSAGGVLYLPDDVKVELVEVTPDGVAKLRVYVYEKDDGDPLVPVPGYDPGAGSAGGSAGGSAGGS [r10_934_TrMRF] | 0.126 ± 0.36 | -0.777 ± 0.48
SAGGSAGGSAGGWIVRIEHGGKERMFQFDSPEEIKDQIRPMFPNGKKVKVEVMPPDDLKSAGGSAGGSAGGS [r10_1167_TrROS] | -0.0912 ± 0.16 | -0.483 ± 0.21
SAGGSAGGSAGIPADAPEAVVRLDLYPDGPDTVVTVEAPFKDIPLDDIPENAVVRLEASPLGSAGGSAGGSA [r18_21_TrMRF] | 0.0909 ± 0.06 | -0.539 ± 0.1
SAGGSAGGSAGKALVFDSPEDLVEKLKENGVELTDIAEVDAPGGPVVLAPIEGIPKPGFGSAGGSAGGSAGG [r11_141_TrMRF] | 0.633 ± 0.065 | 0.28 ± 0.16
SAGGSAGGSAGKKFKITEIHPGDNHHHITVKWKRDGKKRERTVMVPSGPEMAKKADIIIISAGGSAGGSAGG [r11_921_TrROS] | -0.547 ± 0.48 | < -1
SAGGSAGGSAGMEVIINDPEKAKNIPVNSKVKLPNGKEYKVKKVEYNPEIGYVKFIVSPESAGGSAGGSAGG [r11_316_TrMRF] | -0.489 ± 0.37 | -0.588 ± 0.34
SAGGSAGGSAGMKLIEFPPGEEFEEFIKNLPGPIKSVERTKIEPEKVLAKIVLELPPSNLSAGGSAGGSAGG [r11_143_JUSTAS] | -0.545 ± 0.36 | < -1
SAGGSAGGSAGMKTRVTTFTYTEPVLLPDTGELRTVTTTVTFNKPLPEEPLFFTNTPNAGSAGGSAGGSAGG [r17_493_JUSTAS] | 0.149 ± 0.19 | -0.158 ± 0.19
SAGGSAGGSAGMKVKSIKKLSKDPKNGKETFEITIPENGEKVTIETEPGKFEEVKKKLLKSAGGSAGGSAGG [r17_111_JUSTAS] | 0.359 ± 0.089 | -0.0508 ± 0.13
SAGGSAGGSAGMLKTIVIKELTPEAKKALLENPDLPEDAEVPTLVEELTVPVKRTPKGLVSAGGSAGGSAGG [r17_194_JUSTAS] | -0.0656 ± 0.077 | -0.398 ± 0.13
SAGGSAGGSAGMLTTKTITLPHAPDDPAAFRAAVLKGLPPELPVLSVDYDPATGTGTVVASAGGSAGGSAGG [r11_698_JUSTAS] | 0.0666 ± 0.31 | < -1
SAGGSAGGSAGMPLEELAQEALNQFQENGEPVEIDIEVETPNGEYFPFEVEINGDGLKIRSAGGSAGGSAGG [r11_954_TrROS] | 0.455 ± 0.068 | -0.0909 ± 0.32
SAGGSAGGSAGMTLVKTYERFPETGTVVERLSAREPDGPTVPLEVTKVRPVAGEEPVPLLSAGGSAGGSAGG [r11_750_JUSTAS] | -0.665 ± 0.23 | < -1
SAGGSAGGSAGNADQIKEIARKYAPKNGMKPKDVDIEVEERENPNGKKELHIDVEGEYKNSAGGSAGGSAGG [r11_414_TrROS] | 0.00121 ± 0.46 | < -1
SAGGSAGGSAGPMWRIEVENPNGRTPEIWIPPNMDTPEELVDELKKHFPGLKKVKIEPYPSAGGSAGGSAGG [r11_311_TrROS] | 0.184 ± 0.12 | -0.391 ± 0.27
SAGGSAGGSAGPPGEPVRIKLKFPNGNPIEIPGKLDDAEEIAEELQSEGFPFSKVEVEKWSAGGSAGGSAGG [r11_946_TrROS] | -0.257 ± 0.49 | -0.603 ± 0.51
SAGGSAGGSAGPWVPIAPGPNGMWIWAEPDPDKFTIRMFPMSPDGKIPDVQEHEIPPEDFSAGGSAGGSAGG [r11_88_TrROS] | 0.156 ± 0.22 | -0.216 ± 0.17
SAGGSAGGSAGSMTVTSKYTLPGSSDVPVEVEVYSEAPVAVLTKPGAKTVLPLEALKALLSAGGSAGGSAGG [r11_370_JUSTAS] | 0.346 ± 0.14 | -0.0987 ± 0.084
